According to the supplement of paper PMC7877785:
± gives the uncertainty stated by the source.

Assay: self-splicing fitness, log relative to wild type (ln ratio); higher = more splicing; Tetrahymena group I intron in knt gene, E. coli kanamycin selection, DiMSum; sequences stand for … in CUCUCU…GGAGGGAAAAGUUAUCAGGCAUGCACCUGGUAGCUAGUCUUUAAACCAAUAGAUUGCAUCGGUUUAAAAGGCAAGACCGUCAAAUUGCGGGAAAGGGGUCAACAGCCGUUCAGUACCAAGUCUCAGGGGAAACUUUGAGAUGGCCUUGCAAAGGGUAUGGUAAUAAGCUGACGGACAUGGUCCUAACCACGCAGCCAAGUCCUAAGUCAACAGAUCUUCUGUUGAUAUGGAUGCAGUUCACAGACUAAAUGUCGGUCGGGGAAGAUGUAUUCUUCUCAUAAGAUAUAGUCGGACCUCUCCUUAAUGGGAGCUAGCGGAUGAAGUGAUGCAACACUGGAGCCGCUGGGAACUAAUUUGUAUGCGAAAGUAUAUUGAUUAGUUUUGGAGUACUCGUGGUCG
Summary of the method: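 Fitness was computed with DiMSum as the error-weighted combination of replicate fold changes, kanamycin versus none, each normalised to wild type. The library randomised all eight intron nucleotides of the P1ex region, with the intron placed in the knt kanamycin-resistance gene on pET-22b(+) in E. coli BL21(DE3). Six replicate transformations were grown overnight at 37°C or 30°C on LB agar with or without 25 μg/mL kanamycin, plus 100 μg/mL carbenicillin, 50 μM IPTG and 0.2% rhamnose. Pooled colonies were amplicon-sequenced on an Illumina HiSeq 2500.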

Sequence	self-splicing fitness (ln) (30 °C)	self-splicing fitness (ln) (37 °C)
GUUCAGCAAUAUUACGUAGU	-0.247 ± 0.11	0.369 ± 0.11
CAACAGCAAUAUUACGGCCG	0.255 ± 0.072	0.563 ± 0.1
ACUGAGCAAUAUUACGGUUA	-2.56 ± 0.21	-1.9 ± 0.17
CUAAAGCAAUAUUACGGGCC	-2.8 ± 0.23	-1.28 ± 0.2
ACGCAGCAAUAUUACGAGAA	-1.64 ± 0.26	-2.83 ± 0.25
UAAUAGCAAUAUUACGACUC	-3.23 ± 0.25	-1.03 ± 0.23
UUAAAGCAAUAUUACGGUGU	-2.73 ± 0.11	-1.29 ± 0.1
UUGCAGCAAUAUUACGAGGC	-3.55 ± 0.23	-2.07 ± 0.22
UAUUAGCAAUAUUACGAUAA	-1.07 ± 0.19	0.628 ± 0.16
AUACAGCAAUAUUACGAUGA	-1.42 ± 0.11	-0.0115 ± 0.1
AUGCAGCAAUAUUACGCAUG	-3.28 ± 0.35	-2.66 ± 0.31
GAACAGCAAUAUUACGCUAG	-1.69 ± 0.098	-0.109 ± 0.092
UUAUAGCAAUAUUACGCUCC	-2.11 ± 0.24	0.501 ± 0.45
UGAGAGCAAUAUUACGUAGG	-2.48 ± 0.35	-1.12 ± 0.41
GUUUAGCAAUAUUACGCGCC	-3.31 ± 0.43	-2.51 ± 0.44
UGAUAGCAAUAUUACGACGG	-1.4 ± 0.19	0.124 ± 0.18
AACAAGCAAUAUUACGAAGG	-2.77 ± 0.19	-1.95 ± 0.24
UCCAAGCAAUAUUACGAGUA	-0.957 ± 0.099	-0.576 ± 0.084
GCUUAGCAAUAUUACGGCCG	-1.9 ± 0.34	-1.48 ± 0.36
CACCAGCAAUAUUACGUAGU	-3.23 ± 0.075	-1.53 ± 0.079
AUUGAGCAAUAUUACGUAGG	-3.16 ± 0.37	0.0777 ± 0.29
UUAUAGCAAUAUUACGUUCU	-2.18 ± 0.15	-1.11 ± 0.16
GUCGAGCAAUAUUACGGCCA	-1.28 ± 0.36	-0.721 ± 0.27
UGUGAGCAAUAUUACGGGAG	-2.52 ± 0.21	-2.04 ± 0.33
UGGUAGCAAUAUUACGUGAG	-1.05 ± 0.092	0.0891 ± 0.11

Sequence	self-splicing fitness (ln) (30 °C)	self-splicing fitness (ln) (37 °C)
AUCCAGCAAUAUUACGCCUC	-1.53 ± 0.089	-1.06 ± 0.14
AAGGAGCAAUAUUACGAGCC	-0.997 ± 0.17	
GUACAGCAAUAUUACGACGC	-0.428 ± 0.092	-0.206 ± 0.1
CCUUAGCAAUAUUACGUAUG	-2.98 ± 0.19	-0.234 ± 0.12
AAUCAGCAAUAUUACGACAU	0.114 ± 0.011	0.208 ± 0.032
GACUAGCAAUAUUACGUGGC	-3.56 ± 0.24	-2.54 ± 0.21
UAAAAGCAAUAUUACGGAAA	-2.5 ± 0.23	-1.72 ± 0.15
UGAUAGCAAUAUUACGACGU	-2.71 ± 0.24	-1.17 ± 0.37
CUGUAGCAAUAUUACGCAGC	-3.17 ± 0.41	
AACGAGCAAUAUUACGCUCU	-5.11 ± 0.41	-1.81 ± 0.14
CCUCAGCAAUAUUACGCUCA	-2.6 ± 0.39	-1.74 ± 0.22
CUCUAGCAAUAUUACGAGUU	-3.44 ± 0.38	-3.55 ± 0.42
CCAGAGCAAUAUUACGAUAG	-1.42 ± 0.082	-1 ± 0.12
CAGCAGCAAUAUUACGAGAC	-3.94 ± 0.36	-2.21 ± 0.26
UCCCAGCAAUAUUACGCAGC	-3.71 ± 0.29	-3.19 ± 0.47
AUAUAGCAAUAUUACGUUGA	-2.63 ± 0.22	-2.53 ± 0.26
ACAUAGCAAUAUUACGUCGC	-4.47 ± 0.38	-1.69 ± 0.24
UAAGAGCAAUAUUACGCUAG	-3.86 ± 0.26	-1.94 ± 0.21
AUAGAGCAAUAUUACGCAGC	-2.33 ± 0.45	
AUGGAGCAAUAUUACGUAGA		-2.39 ± 0.42
CCCUAGCAAUAUUACGUUCA	-3.05 ± 0.19	-2.7 ± 0.2
CGGGAGCAAUAUUACGAUAA	-3.16 ± 0.25	-2.57 ± 0.39
GCGAAGCAAUAUUACGGCAA	-0.999 ± 0.16	-0.804 ± 0.16
GUUAAGCAAUAUUACGGGUA	-2.01 ± 0.14	-1.39 ± 0.12
GGAAAGCAAUAUUACGCCUU	-1.07 ± 0.29	-1.29 ± 0.38

Sequence	self-splicing fitness (ln) (30 °C)	self-splicing fitness (ln) (37 °C)
CCUCAGCAAUAUUACGCUAC	-1.66 ± 0.33	
GCCCAGCAAUAUUACGCGAC	-2.9 ± 0.17	-1.55 ± 0.14
UACCAGCAAUAUUACGCUCG	-0.415 ± 0.093	-0.203 ± 0.11
CGAGAGCAAUAUUACGUAAU		-2.01 ± 0.3
GUCAAGCAAUAUUACGAAGA	-3.88 ± 0.28	
CAUCAGCAAUAUUACGGAUC	-1.79 ± 0.088	0.216 ± 0.11
UCCGAGCAAUAUUACGAAGG	-2.07 ± 0.11	-1.43 ± 0.13
CUCAAGCAAUAUUACGUUGC	-4.05 ± 0.29	-2.39 ± 0.21
GAAAAGCAAUAUUACGAACA	-0.893 ± 0.1	0.0828 ± 0.12
GACUAGCAAUAUUACGAUAG	-2.95 ± 0.16	-1.17 ± 0.12
UAAUAGCAAUAUUACGGCUU	-0.901 ± 0.096	-0.115 ± 0.13
UGCGAGCAAUAUUACGAAUG	-2.77 ± 0.18	-2.43 ± 0.23
CAAAAGCAAUAUUACGCCGU	-2.08 ± 0.16	-1.32 ± 0.18
AGGGAGCAAUAUUACGUGCC	-2.79 ± 0.46	
AAUCAGCAAUAUUACGGGGU	-3.02 ± 0.17	-1.39 ± 0.12
UUUUAGCAAUAUUACGCGGA	-2 ± 0.17	-1.44 ± 0.17
AAAGAGCAAUAUUACGAGCC	-2.96 ± 0.35	
UACUAGCAAUAUUACGAUCU	-1.31 ± 0.13	-0.847 ± 0.14
AAGUAGCAAUAUUACGCAAA		-1.34 ± 0.31
CCGCAGCAAUAUUACGAUAG	-0.786 ± 0.052	0.602 ± 0.07
UUCAAGCAAUAUUACGUCCA	-1.12 ± 0.11	-0.803 ± 0.098
GCCCAGCAAUAUUACGGUAC	-1.27 ± 0.059	-0.241 ± 0.073
CCCCAGCAAUAUUACGCAAU	-2.96 ± 0.12	-1.34 ± 0.12
UGAAAGCAAUAUUACGAAUU	-1.7 ± 0.26	-1.66 ± 0.29
AAUGAGCAAUAUUACGCUGU	-1.84 ± 0.34	-2.21 ± 0.4

Sequence	self-splicing fitness (ln) (30 °C)	self-splicing fitness (ln) (37 °C)
CCAAAGCAAUAUUACGUUGU	-3.77 ± 0.12	-2.44 ± 0.12
AUCUAGCAAUAUUACGCCCU	-0.479 ± 0.19	0.46 ± 0.19
UGACAGCAAUAUUACGCUUC	-3.56 ± 0.25	-2.29 ± 0.23
AGCAAGCAAUAUUACGUGGA	-2.85 ± 0.15	-1.85 ± 0.12
AAACAGCAAUAUUACGAGCC	-2.55 ± 0.2	-1.75 ± 0.3
CACCAGCAAUAUUACGUUCA	-3.07 ± 0.16	-2.15 ± 0.16
GUGUAGCAAUAUUACGAUUG	-4.18 ± 0.3	-2.18 ± 0.2
AAGCAGCAAUAUUACGGACC	-1.42 ± 0.14	-0.369 ± 0.17
GAUAAGCAAUAUUACGGCGU	0.319 ± 0.077	0.486 ± 0.1
GCUCAGCAAUAUUACGGUGC	-1.82 ± 0.19	-1.29 ± 0.16
AUCUAGCAAUAUUACGAGCU	-2.29 ± 0.17	-0.565 ± 0.17
GAUGAGCAAUAUUACGGACC	-0.753 ± 0.19	-0.541 ± 0.22
UUACAGCAAUAUUACGUAGU	-2.7 ± 0.15	-3.5 ± 0.33
AAGCAGCAAUAUUACGUUCU	-0.454 ± 0.056	0.0556 ± 0.076
UUAAAGCAAUAUUACGGAUG	-0.473 ± 0.074	-0.418 ± 0.1
CCCUAGCAAUAUUACGAAAA	-2.83 ± 0.2	-3.22 ± 0.27
AGUUAGCAAUAUUACGUGCC	-0.977 ± 0.12	-0.145 ± 0.16
CAACAGCAAUAUUACGGGGC	-3.71 ± 0.16	-3.4 ± 0.17
ACGAAGCAAUAUUACGCUAC	-2.09 ± 0.14	-2.81 ± 0.15
ACGAAGCAAUAUUACGGGCU	-0.943 ± 0.1	-1.67 ± 0.16
AGACAGCAAUAUUACGCCGG	-2.95 ± 0.18	-1.67 ± 0.16
CUGUAGCAAUAUUACGGAAA	-0.916 ± 0.34	
GGCUAGCAAUAUUACGUAGG	-1.96 ± 0.14	-1.78 ± 0.13
